Assay results published in patent US20260042834A1 (HBM ALPHA THERAPEUTICS, published 2026).

T1: corticotropin-releasing hormone (CRH) peptide (human and mouse (same sequence), not fully specified)
T1 peptide: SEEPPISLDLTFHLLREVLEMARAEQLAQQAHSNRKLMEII


Molecular target: T1, corticotropin-releasing hormone (CRH) …
Test: cell-based or functional assay

Row | hCRHR1 Luciferase Reporter Assay IC50 | mCrhr1 Luciferase Reporter Assay IC50 | Binder
1 | 1.34 nM | – | PR302341-49 (antibody, human IgG1, kappa, V domains shown) VH: QVQLVQSGAEVKKPGASVKVSCKASGYTFTDYFMKWVRQAPGQGLEWMGVINPNNADIFYNQKFKGRVTMTVDKSTSTAYMELSSLRSEDTAVYYCARGTDRALFAYWGQGTLVTVSS VL: DVVMTQTPLSSPVTLGQPASISCRSGQSIVHSEGNTYLEWYQQRPGQPPRLLIYKVSNRFSGVPDRFSGSGAGTDFTLKISRVEAEDLGVYYCFQGSHIPWTFGGGTKVEIKR
2 | 0.105 nM | 3.19 nM | PR302341-55 (antibody, human IgG1, kappa, V domains shown) VH: QVQLVQSGAEVKKPGASVKVSCKASGYTFTDYFMKWVRQAPGQRLEWMGVINPNNADIFYNQKFKGRVTITRDTSASTAYMELSSLRSEDTAVYYCARGTDRALFAYWGQGTLVTVSS VL: DVVMTQSPLSLPVTLGQPASISCRSGQSIVHSDGNTYLEWYQQRPGQSPRLLIYKVSNRFSGVPDRFSGSGSGTDFTLKISRVEAEDLGVYYCFQGSHIPWTFGGGTKVEIKR
3 | 0.573 nM | 6.48 nM | PR302341-57 (antibody, human IgG1, kappa, V domains shown) VH: QVQLVQSGAEVKKPGASVKVSCKASGYTFTDYFMKWVRQAPGQRLEWMGVINPNQGDIFYNQKFKGRVTITRDTSASTAYMELSSLRSEDTAVYYCARGTDRALFAYWGQGTLVTVSS VL: DVVMTQSPLSLPVTLGQPASISCRSGQSIVHSDGNTYLEWYQQRPGQSPRLLIYKVSNRFSGVPDRFSGSGSGTDFTLKISRVEAEDLGVYYCFQGSHIPWTFGGGTKVEIKR
4 | 0.732 nM | 4.09 nM | PR302341-54 (antibody, human IgG1, kappa, V domains shown) VH: QVQLVQSGAEVKKPGASVKVSCKASGYTFTDYFMKWVRQAPGQGLEWMGVINPNQGDIFYNQKFKGRVTMTVDKSTSTAYMELSSLRSEDTAVYYCARGTDRALFAYWGQGTLVTVSS VL: DVVMTQTPLSSPVTLGQPASISCRSGQSIVHSSGNTYLEWYQQRPGQPPRLLIYKVSNRFSGVPDRFSGSGAGTDFTLKISRVEAEDLGVYYCFQGSHIPWTFGGGTKVEIKR
5 | 1.66 nM | – | PR302341-51 (antibody, human IgG1, kappa, V domains shown) VH: QVQLVQSGAEVKKPGASVKVSCKASGYTFTDYFMKWVRQAPGQGLEWMGVINPNQGDIFYNQKFKGRVTMTVDKSTSTAYMELSSLRSEDTAVYYCARGTDRALFAYWGQGTLVTVSS VL: DVVMTQTPLSSPVTLGQPASISCRSGQSIVHSEGNTYLEWYQQRPGQPPRLLIYKVSNRFSGVPDRFSGSGAGTDFTLKISRVEAEDLGVYYCFQGSHIPWTFGGGTKVEIKR
6 | 0.552 nM | – | PR302341-69 (antibody, human IgG1, kappa, V domains shown) VH: QVQLVQSGAEVKKPGASVKVSCKASGYTFTDYFMKWVRQAPGQGLEWMGVINPNNGDIFYNQKFKGRVTMTVDKSTSTAYMELSSLRSEDTAVYYCARGTDRALFAYWGQGTLVTVSS VL: DVVMTQTPLSSPVTLGQPASISCRSGQSIVHSSGNTYLEWYQQRPGQPPRLLIYKVSNRFSGVPDRFSGSGAGTDFTLKISRVEAEDLGVYYCFQGSHIPWTFGGGTKVEIKR
7 | 1.04 nM | 4 nM | PR302341-59 (antibody, human IgG1, kappa, V domains shown) VH: QVQLVQSGAEVKKPGASVKVSCKASGYTFTDYFMKWVRQAPGQRLEWMGVINPNSGDIFYNQKFKGRVTITRDTSASTAYMELSSLRSEDTAVYYCARGTDRALFAYWGQGTLVTVSS VL: DVVMTQSPLSLPVTLGQPASISCRSGQSIVHSDANTYLEWYQQRPGQSPRLLIYKVSNRFSGVPDRFSGSGSGTDFTLKISRVEAEDLGVYYCFQGSHIPWTFGGGTKVEIKR
8 | 0.738 nM | – | PR302341-56 (antibody, human IgG1, kappa, V domains shown) VH: QVQLVQSGAEVKKPGASVKVSCKASGYTFTDYFMKWVRQAPGQRLEWMGVINPNSGDIFYNQKFKGRVTITRDTSASTAYMELSSLRSEDTAVYYCARGTDRALFAYWGQGTLVTVSS VL: DVVMTQSPLSLPVTLGQPASISCRSGQSIVHSDGNTYLEWYQQRPGQSPRLLIYKVSNRFSGVPDRFSGSGSGTDFTLKISRVEAEDLGVYYCFQGSHIPWTFGGGTKVEIKR
9 | 0.946 nM | 3.29 nM | PR302341-52 (antibody, human IgG1, kappa, V domains shown) VH: QVQLVQSGAEVKKPGASVKVSCKASGYTFTDYFMKWVRQAPGQGLEWMGVINPNNADIFYNQKFKGRVTMTVDKSTSTAYMELSSLRSEDTAVYYCARGTDRALFAYWGQGTLVTVSS VL: DVVMTQTPLSSPVTLGQPASISCRSGQSIVHSSGNTYLEWYQQRPGQPPRLLIYKVSNRFSGVPDRFSGSGAGTDFTLKISRVEAEDLGVYYCFQGSHIPWTFGGGTKVEIKR
10 | 0.128 nM | – | PR302341-67 (antibody, human IgG1, kappa, V domains shown) VH: QVQLVQSGAEVKKPGASVKVSCKASGYTFTDYFMKWVRQAPGQGLEWMGVINPNNGDIFYNQKFKGRVTMTVDKSTSTAYMELSSLRSEDTAVYYCARGTDRALFAYWGQGTLVTVSS VL: DVVMTQTPLSSPVTLGQPASISCRSGQSIVHSDANTYLEWYQQRPGQPPRLLIYKVSNRFSGVPDRFSGSGAGTDFTLKISRVEAEDLGVYYCFQGSHIPWTFGGGTKVEIKR
11 | 0.418 nM | – | PR302341-68 (antibody, human IgG1, kappa, V domains shown) VH: QVQLVQSGAEVKKPGASVKVSCKASGYTFTDYFMKWVRQAPGQGLEWMGVINPNNGDIFYNQKFKGRVTMTVDKSTSTAYMELSSLRSEDTAVYYCARGTDRALFAYWGQGTLVTVSS VL: DVVMTQTPLSSPVTLGQPASISCRSGQSIVHSEGNTYLEWYQQRPGQPPRLLIYKVSNRFSGVPDRFSGSGAGTDFTLKISRVEAEDLGVYYCFQGSHIPWTFGGGTKVEIKR
12 | 0.571 nM | 3.54 nM | PR302341-58 (antibody, human IgG1, kappa, V domains shown) VH: QVQLVQSGAEVKKPGASVKVSCKASGYTFTDYFMKWVRQAPGQRLEWMGVINPNNADIFYNQKFKGRVTITRDTSASTAYMELSSLRSEDTAVYYCARGTDRALFAYWGQGTLVTVSS VL: DVVMTQSPLSLPVTLGQPASISCRSGQSIVHSDANTYLEWYQQRPGQSPRLLIYKVSNRFSGVPDRFSGSGSGTDFTLKISRVEAEDLGVYYCFQGSHIPWTFGGGTKVEIKR
13 | 1.48 nM | – | PR302341-50 (antibody, human IgG1, kappa, V domains shown) VH: QVQLVQSGAEVKKPGASVKVSCKASGYTFTDYFMKWVRQAPGQGLEWMGVINPNSGDIFYNQKFKGRVTMTVDKSTSTAYMELSSLRSEDTAVYYCARGTDRALFAYWGQGTLVTVSS VL: DVVMTQTPLSSPVTLGQPASISCRSGQSIVHSEGNTYLEWYQQRPGQPPRLLIYKVSNRFSGVPDRFSGSGAGTDFTLKISRVEAEDLGVYYCFQGSHIPWTFGGGTKVEIKR
14 | 1.7 nM | 5.36 nM | PR302341-53 (antibody, human IgG1, kappa, V domains shown) VH: QVQLVQSGAEVKKPGASVKVSCKASGYTFTDYFMKWVRQAPGQGLEWMGVINPNSGDIFYNQKFKGRVTMTVDKSTSTAYMELSSLRSEDTAVYYCARGTDRALFAYWGQGTLVTVSS VL: DVVMTQTPLSSPVTLGQPASISCRSGQSIVHSSGNTYLEWYQQRPGQPPRLLIYKVSNRFSGVPDRFSGSGAGTDFTLKISRVEAEDLGVYYCFQGSHIPWTFGGGTKVEIKR
